From paper PMC4911921, “Hfq assists small RNAs in binding to the coding sequence of ompD mRNA and in rearranging its structure”

Legend:
Hfq wt [1] = target: T1, Hfq wt (Salmonella, UniProt P0A1R0 1-102); assay: EMSA; 3 nM Hfq hexamer; 24 mM Tris-HCl pH 7.5, 50 mM NaCl, 50 mM NH4Cl, 50 mM KCl, 0.5 mM EDTA, 2 mM MgCl2, 5% glycerol, room temperature, 1 h; 6% native gel in 1x THEM2; details: protein: recombinant; tags: C-terminal His6; chain copies: 6; label: 32P
Hfq wt [2] = target: T1, Hfq wt; assay: EMSA; 24 mM Tris-HCl pH 7.5, 50 mM NaCl, 50 mM NH4Cl, 50 mM KCl, 0.5 mM EDTA, 2 mM MgCl2, 5% glycerol, room temperature, 1 h; 6% native gel in 1x THEM2; details: protein: recombinant, tags: C-terminal His6, chain copies: 6, label: 5'-32P
Hfq wt [3] = target: T1, Hfq wt; assay: EMSA; specific site (Ks); 24 mM Tris-HCl pH 7.5, 50 mM NaCl, 50 mM NH4Cl, 50 mM KCl, 0.5 mM EDTA, 2 mM MgCl2, 5% glycerol, room temperature, 1 h; 6% native gel in 1x THEM2; details: protein: recombinant, tags: C-terminal His6, chain copies: 6, label: 5'-32P
Hfq wt [4] = target: T1, Hfq wt; assay: EMSA; two nonspecific sites (Kns); 24 mM Tris-HCl pH 7.5, 50 mM NaCl, 50 mM NH4Cl, 50 mM KCl, 0.5 mM EDTA, 2 mM MgCl2, 5% glycerol, room temperature, 1 h; 6% native gel in 1x THEM2; details: protein: recombinant, tags: C-terminal His6, chain copies: 6, label: 5'-32P
Hfq K56A [5] = target: T2, Hfq K56A (Salmonella, UniProt P0A1R0 1-102, K56A); assay: EMSA; tightest complex; 24 mM Tris-HCl pH 7.5, 50 mM NaCl, 50 mM NH4Cl, 50 mM KCl, 0.5 mM EDTA, 2 mM MgCl2, 5% glycerol, room temperature, 1 h; 6% native gel in 1x THEM2; details: protein: recombinant; tags: C-terminal His6; chain copies: 6; label: 5'-32P; five stem-loops SL1-SL5
Hfq R16A [6] = target: T3, Hfq R16A (Salmonella, UniProt P0A1R0 1-102, R16A); assay: as above; details: protein: recombinant; tags: C-terminal His6; chain copies: 6; label: 5'-32P; five stem-loops SL1-SL5
Hfq Y25D [7] = target: T4, Hfq Y25D (Salmonella, UniProt P0A1R0 1-102, Y25D); assay: as above; details: protein: recombinant; tags: C-terminal His6; chain copies: 6; label: 5'-32P; five stem-loops SL1-SL5
Hfq K56A [8] = target: T2, Hfq K56A; assay: EMSA; 24 mM Tris-HCl pH 7.5, 50 mM NaCl, 50 mM NH4Cl, 50 mM KCl, 0.5 mM EDTA, 2 mM MgCl2, 5% glycerol, room temperature, 1 h; 6% native gel in 1x THEM2; details: protein: recombinant; tags: C-terminal His6; chain copies: 6; label: 5'-32P
Hfq R16A [9] = target: T3, Hfq R16A; assay: as above; details: protein: recombinant; tags: C-terminal His6; chain copies: 6; label: 5'-32P
Hfq Y25D [10] = target: T4, Hfq Y25D; assay: as above; details: protein: recombinant; tags: C-terminal His6; chain copies: 6; label: 5'-32P

GUUAUAUGCCUU (ssRNA) [MicC-12]
binding result (Hfq wt [1]): no binding

B1: ompD-35-131 (structured_RNA)
RNA: GGAAACACGCUAAGAAAAUUAUAAGGAUUAUUAAAAUGAAACUUAAGUUAGUGGCAGUGGCAGUGACUUCCCUGUUGGCAGCAGGCGUUGUAAAUGC
binding signal (Hfq wt [2]; SL2, SL3): ~4 fold tighter than ompD-187

GCCACUGCUUUUCUUU (ssRNA) [RybB-16]
binding result (Hfq wt [1]): no binding

B2: ompD-187 (structured_RNA)
RNA: GCCAUUGACAAACGCCUCGUUUAACAAUGGUUGAGGAAACACGCUAAGAAAAUUAUAAGGAUUAUUAAAAUGAAACUUAAGUUAGUGGCAGUGGCAGUGACUUCCCUGUUGGCAGCAGGCGUUGUAAAUGCAGCCGAGGUAUAUAACAAAGACGGCAAUAAACUGGAUCUGUACGGUAAAGUUCACG
Kd (Hfq wt [3]; five stem-loops SL1-SL5): 0.61 ± 0.17 nM | Kd (Hfq wt [4]; five stem-loops SL1-SL5): 1.9 ± 0.58 nM | binding signal (Hfq K56A [5]): ~2 fold weaker than wt Hfq | binding signal (Hfq R16A [6]): ~1 fold vs wt Hfq (not changed) | binding signal (Hfq Y25D [7]): ~3 fold weaker than wt Hfq

B3: ompD-187 ARN-6 (structured_RNA)
RNA: GCCAUUGACAAACGCCUCGUUUAACAAUGGUUGAGGAAACACGCUAAGAAAAUUAUAAGGAUUAUUAAAAUGAAACUUAAGUUAGUGGCAGUGGCAGUGACUUCCCUGUUGGCAGCAGGCGUUGUAAAUGCAGCCGAGGUAUAUAACAAAGACGGCCAUUCACUGGAUCUGUACGGUAAAGUUCACG
Kd (Hfq wt [3]): 0.82 ± 0.075 nM | Kd (Hfq wt [4]): 2.4 ± 0.29 nM

B4: ompD-187 ARN-2 (structured_RNA)
RNA: GCCAUUGACAAACGCCUCGUUUAACAAUGGUUGUUGAUACACGCUAAGAAAAUUAUAAGGAUUAUUAAAAUGAAACUUAAGUUAGUGGCAGUGGCAGUGACUUCCCUGUUGGCAGCAGGCGUUGUAAAUGCAGCCGAGGUAUAUAACAAAGACGGCAAUAAACUGGAUCUGUACGGUAAAGUUCACG
Kd (Hfq wt [3]): 0.85 ± 0.003 nM | Kd (Hfq wt [4]): 2.2 ± 0.25 nM

B5: ompD-187 ARN-1 (structured_RNA)
RNA: GCCAUUGACAAACGCCUCGUUUCGCAAUGGUUGAGGAAACACGCUAAGAAAAUUAUAAGGAUUAUUAAAAUGAAACUUAAGUUAGUGGCAGUGGCAGUGACUUCCCUGUUGGCAGCAGGCGUUGUAAAUGCAGCCGAGGUAUAUAACAAAGACGGCAAUAAACUGGAUCUGUACGGUAAAGUUCACG
Kd (Hfq wt [3]): 0.77 ± 0.097 nM | Kd (Hfq wt [4]): 3 ± 0.46 nM

B6: ompD-187 ARN-5 (structured_RNA)
RNA: GCCAUUGACAAACGCCUCGUUUAACAAUGGUUGAGGAAACACGCUAAGAAAAUUAUAAGGAUUAUUAAAAUGAAACUUAAGUUAGUGGCAGUGGCAGUGACUUCCCUGUUGGCAGCAGGCGUUGUAAAUGCAGCCGAGGUAUAUAACGAGGACGGCAAUAAACUGGAUCUGUACGGUAAAGUUCACG
Kd (Hfq wt [3]): 0.89 ± 0.093 nM | Kd (Hfq wt [4]): 3 ± 0.46 nM

B7: ompD-187 ARN-5+6 (structured_RNA)
RNA: GCCAUUGACAAACGCCUCGUUUAACAAUGGUUGAGGAAACACGCUAAGAAAAUUAUAAGGAUUAUUAAAAUGAAACUUAAGUUAGUGGCAGUGGCAGUGACUUCCCUGUUGGCAGCAGGCGUUGUAAAUGCAGCCGAGGUAUAUAACGAGGACGGCCAUUCACUGGAUCUGUACGGUAAAGUUCACG
Kd (Hfq wt [3]): 0.81 ± 0.09 nM

CCUGUUGGCAGCAGGCGUU (ssRNA) [ompD-19S]
binding result (Hfq wt [1]): no binding

B8: ompD-187 ARN-3 (structured_RNA)
RNA: GCCAUUGACAAACGCCUCGUUUAACAAUGGUUGAGGAAACACGCUUUGAUAUUAUAAGGAUUAUUAAAAUGAAACUUAAGUUAGUGGCAGUGGCAGUGACUUCCCUGUUGGCAGCAGGCGUUGUAAAUGCAGCCGAGGUAUAUAACAAAGACGGCAAUAAACUGGAUCUGUACGGUAAAGUUCACG
Kd (Hfq wt [3]): 0.93 ± 0.24 nM | Kd (Hfq wt [4]): 2.9 ± 0.35 nM | binding signal (Hfq K56A [8]): ~1 fold vs same Hfq mutant to ompD-187 (similar) | binding signal (Hfq R16A [9]): ~6 fold weaker than R16A to ompD-187 | binding signal (Hfq Y25D [10]): ~1 fold vs same Hfq mutant to ompD-187 (similar)

B9: ompD-93-187 (structured_RNA)
RNA: GGCAGUGACUUCCCUGUUGGCAGCAGGCGUUGUAAAUGCAGCCGAGGUAUAUAACAAAGACGGCAAUAAACUGGAUCUGUACGGUAAAGUUCACG
binding signal (Hfq wt [2]; SL3, SL4, SL5): ~6 fold weaker than ompD-187

B10: ompD-1-95 (structured_RNA)
RNA: GCCAUUGACAAACGCCUCGUUUAACAAUGGUUGAGGAAACACGCUAAGAAAAUUAUAAGGAUUAUUAAAAUGAAACUUAAGUUAGUGGCAGUGGC
binding signal (Hfq wt [2]; SL1, SL2): ~1 fold vs ompD-187 (similar)

UAAGUUAGUGGCAGUGGCAGU (ssRNA) [ompD-21R]
binding result (Hfq wt [1]): no binding

B11: ompD-187-SL2mut (structured_RNA)
RNA: GGCCAUUGACAAACGCCUCGUUUAACAAUGGUUGAGGAAACACGCUUUGAUAAUUCUAGGGCUUAUUUUUAUGAUGCUUAAGUUAGUGGCAGUGGCAGUGACUUCCCUGUUGGCAGCAGGCGUUGUAAAUGCAGCCGAGGUAUAUAACAAAGACGGCAAUAAACUGGAUCUGUACGGUAAAGUUCACG
binding signal (Hfq K56A [8]): ~1 fold vs same Hfq mutant to ompD-187 (similar) | binding signal (Hfq R16A [9]): ~10 fold weaker than R16A to ompD-187 | binding signal (Hfq Y25D [10]): ~1 fold vs same Hfq mutant to ompD-187 (similar) | binding signal (Hfq wt [2]): ~3 fold weaker than ompD-187

GCCGAGGUAUAUAACAAA (ssRNA) [ompD-18M]
binding result (Hfq wt [1]): no binding

GCCUGCAUUAAUGCCAAC (ssRNA) [SdsR-18]
binding result (Hfq wt [1]): no binding
